The source of these data is US20250076311A1 (Chugai, published 2025).

Substitutions are numbered along the chain they refer to.

The target in one assay is T1, Human latent myostatin (human, UniProt O14793 25-266; O14793 267-375).
T1 construct: Biotinylated in the ELISAs; also called human myostatin latent form
T1 sequence 1: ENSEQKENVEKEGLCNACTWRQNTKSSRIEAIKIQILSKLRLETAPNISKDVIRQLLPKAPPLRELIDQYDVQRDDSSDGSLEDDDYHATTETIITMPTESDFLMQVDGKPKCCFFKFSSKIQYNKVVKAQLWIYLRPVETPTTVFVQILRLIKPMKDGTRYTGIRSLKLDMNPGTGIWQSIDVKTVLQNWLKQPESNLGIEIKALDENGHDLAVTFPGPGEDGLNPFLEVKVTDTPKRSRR
T1 sequence 2: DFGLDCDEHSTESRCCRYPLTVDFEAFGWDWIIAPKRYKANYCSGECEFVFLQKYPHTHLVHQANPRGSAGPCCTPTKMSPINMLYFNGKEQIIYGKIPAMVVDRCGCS
The assay can be described thus: Western blot with the antibody as probe on GST-tagged 100-amino-acid fragments of the human latent myostatin propeptide expressed in E. coli BL21 (lanes 1-8), GST control (lane 9) and human latent myostatin 100 ng (lane 10). The text has this: Fragments of the N-terminal propeptide coding region of human latent myostatin were cloned into a pGEX4.1 vector so as to produce GST tagged propeptide fragments of 100 amino acid each, with 80 amino acid overlap (FIG. 22A). Protein expression was induced in transformed BL21 competent cells with Overnight Express Autoinduction System (Merck Millipore) and protein was extracted using the BUGBUSTER® protein extraction reagent (Novagen).
Background: Immunoblotting shows a protein as a band on a membrane.

Assay [1] has as its target T2, cynomolgus monkey FcγRIIa1 extracellular domain, His-tagged (cynomolgus monkey).
T2 construct: also called cyno FcγRIIa1; cynoFcgRIIa1; not shown: C-terminal His-tag
T2 chain: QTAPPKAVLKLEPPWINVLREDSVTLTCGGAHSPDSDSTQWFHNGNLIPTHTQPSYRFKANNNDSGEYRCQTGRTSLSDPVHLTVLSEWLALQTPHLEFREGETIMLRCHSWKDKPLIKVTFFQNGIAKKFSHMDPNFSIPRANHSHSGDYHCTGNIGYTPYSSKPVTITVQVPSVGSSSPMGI
In words: SPR Biacore, KD(SG1)/KD(variant). A general note: Surface plasmon resonance follows binding to a sensor surface in real time, without labels.

Assay [2] deals with T3, cynomolgus monkey FcγRIIa3 extracellular domain, His-tagged (cynomolgus monkey).
T3 construct: also called cyno FcγRIIa3; cynoFcgRIIa3; not shown: C-terminal His-tag
T3 chain: T2 chain with P95T, T121A, A128S, H133P, D135N
The assay can be described thus: SPR Biacore, KD(SG1)/KD(variant).

In assay [3] the target is T4, cynomolgus monkey FcγRIIb extracellular domain, His-tagged (cynomolgus monkey).
T4 construct: also called cyno FcγRIIb; cynoFcγRIIb; not shown: C-terminal His-tag
T4 chain: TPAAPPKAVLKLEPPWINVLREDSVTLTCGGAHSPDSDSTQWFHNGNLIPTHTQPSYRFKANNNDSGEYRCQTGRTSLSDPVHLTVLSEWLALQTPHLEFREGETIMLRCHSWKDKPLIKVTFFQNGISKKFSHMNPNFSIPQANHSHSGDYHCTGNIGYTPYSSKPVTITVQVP
The assay can be described thus: SPR Biacore, KD(SG1)/KD(variant).

In assay [4] the target is T2, cynomolgus monkey FcγRIIa1 …. In words: SPR Biacore, antibody captured, FcgR analyte.
For assay [5], the target named is T3, cynomolgus monkey FcγRIIa3 …. In words: SPR Biacore, antibody captured, FcgR analyte.
The target in assay [6] is T5, human FcγRIIb extracellular domain, His-tagged (human, UniProt P31994 43-217).
T5 construct: also called FcgRIIb (human); not shown: C-terminal His-tag
T5 sequence: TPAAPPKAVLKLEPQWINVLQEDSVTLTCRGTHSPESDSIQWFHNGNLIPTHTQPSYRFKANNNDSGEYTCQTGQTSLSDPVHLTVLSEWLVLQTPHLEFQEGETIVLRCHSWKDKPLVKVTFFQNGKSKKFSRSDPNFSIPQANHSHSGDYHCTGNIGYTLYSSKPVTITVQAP
In words: SPR Biacore, antibody captured, FcgR analyte.

The target in assay [7] is T6, cynomolgus monkey FcγRIIa1 extracellular domain with C-terminal His-tag (cynomolgus monkey).
T6 construct: also called cyno FcgRIIa1; cynoFcγRIIa1
T6 chain: T2 chain
The assay can be described thus: SPR (Biacore), antibody captured, FcgR analyte.

Assay [8] addresses T7, human FcγRIIaR extracellular domain with C-terminal His-tag (human, UniProt P12318 34-217).
T7 construct: also called human FcgRIIaR; FcγRIIa (type R)
T7 chain: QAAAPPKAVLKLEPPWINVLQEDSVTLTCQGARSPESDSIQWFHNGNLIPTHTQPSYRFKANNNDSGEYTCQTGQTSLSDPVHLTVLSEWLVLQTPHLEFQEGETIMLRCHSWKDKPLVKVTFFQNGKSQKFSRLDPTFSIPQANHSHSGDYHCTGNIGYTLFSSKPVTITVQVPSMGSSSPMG
In words: SPR (Biacore), antibody captured, FcgR analyte.

Assay [9] deals with T8, human FcγRIIIaV extracellular domain with C-terminal His-tag (human, UniProt P08637 17-208).
T8 construct: also called human FcgRIIIaV
T8 sequence (P08637 17-208 F176V): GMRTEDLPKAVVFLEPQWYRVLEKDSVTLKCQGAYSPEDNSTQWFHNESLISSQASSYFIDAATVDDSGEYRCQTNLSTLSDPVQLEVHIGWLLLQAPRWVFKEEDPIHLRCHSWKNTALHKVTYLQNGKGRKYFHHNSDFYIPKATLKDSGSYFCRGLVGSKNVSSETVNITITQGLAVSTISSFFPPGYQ
The assay can be described thus: SPR (Biacore), antibody captured, FcgR analyte.

In assay [10] the target is T9, cynomolgus monkey FcγRIIa3 extracellular domain, His-tagged (cynomolgus monkey).
T9 construct: also called cyno FcgRIIa3; cynoFcγRIIa3; not shown: His-tag added to the C-terminus
T9 chain: T2 chain with P95T, T121A, A128S, H133P, D135N
In words: SPR (BIACORE), antibody captured on chip, soluble FcgR as analyte, 25 C. On the procedure:
(§1) The kinetic analysis of interactions between these antibodies and FcγR was carried out using BIACORE® T200 or BIACORE® 4000 (GE Healthcare). HBS-EP+ (GE Healthcare) was used as the running buffer, and the measurement temperature was set to 25° C. […] After the measurement, the antibody captured on the chip was washed off by allowing reaction with 10 mM glycine-HCl, pH1.5 and 25 mM NaOH so that the chip was regenerated and used repeatedly. The sensorgrams obtained as measurement results were analyzed by the 1:1 Langmuir binding model using the BIACORE® Evaluation Software to calculate the binding rate constant ka (L/mol/s) and dissociation rate constant kd (1/s), and the dissociation constant KD (mol/L) was calculated from these values. […] Regarding such interactions, KD values were calculated using the following 1:1 binding model described in BIACORE® T100 Software Handbook BR1006-48 Edition AE.

Assay [11] has as its target T10, cynomolgus monkey FcγRIIIaS extracellular domain, His-tagged (cynomolgus monkey, UniProt A3RFZ7 21-206 (rhesus entry)).
T10 construct: also called cyno FcgRIIIaS; cynoFcγRIIIaS; not shown: His-tag added to the C-terminus
The description is as above. Here is the method:
as §1

In assay [12] the target is T11, human FcγRIIb extracellular domain, His-tagged (human, UniProt P31994 43-217).
T11 construct: also called human FcgRIIb; not shown: His-tag added to the C-terminus
T11 sequence: T5 sequence
The description is as above. Here is the method:
as §1

Assay [13] concerns the target T12, human FcγRIIIaV extracellular domain, His-tagged (human, UniProt P08637 17-208).
T12 construct: also called FcgRIIIaV; not shown: C-terminal His-tag
In words: SPR Biacore, KD(SG1)/KD(variant).

T12 sequence (P08637 17-208 F176V): as above
T10 sequence (A3RFZ7 21-206): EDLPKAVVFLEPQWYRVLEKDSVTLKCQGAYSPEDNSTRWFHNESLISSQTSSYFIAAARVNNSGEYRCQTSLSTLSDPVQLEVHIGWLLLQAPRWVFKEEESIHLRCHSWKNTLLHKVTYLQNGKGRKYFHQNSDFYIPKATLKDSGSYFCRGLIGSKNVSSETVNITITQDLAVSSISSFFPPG

B1: MST1538 (antibody, human IgG1, kappa, V domains shown)
VH: QSLEESGGGLVKPGGTLTLTCKASGIDFSSYYYMCWVRQAPGKGLEWIACIYAGISGSTYYASWAKGRFTISKTSSTTVTLQMTSLTAADTATYFCARDPYHFDYGSLWGPGTLVTVSS
VL: ALVMTQTPASVSAAVGGTVTINCQASQSVYGGNELSWYQQEPGQPPKLLIYSASKLASGVPSRFKGSGSGTQFTLTISGVQCDDAAAYYCAGYRTYSDDDNAFGGGTKVEIKR
notes: Constant regions as for MST1504
As to B1, the binding result with Human latent myostatin was “binds”.

B2: M103205H795-MY010/M103202L889-SK1 (antibody, human IgG1, kappa, name in EU numbering)
heavy: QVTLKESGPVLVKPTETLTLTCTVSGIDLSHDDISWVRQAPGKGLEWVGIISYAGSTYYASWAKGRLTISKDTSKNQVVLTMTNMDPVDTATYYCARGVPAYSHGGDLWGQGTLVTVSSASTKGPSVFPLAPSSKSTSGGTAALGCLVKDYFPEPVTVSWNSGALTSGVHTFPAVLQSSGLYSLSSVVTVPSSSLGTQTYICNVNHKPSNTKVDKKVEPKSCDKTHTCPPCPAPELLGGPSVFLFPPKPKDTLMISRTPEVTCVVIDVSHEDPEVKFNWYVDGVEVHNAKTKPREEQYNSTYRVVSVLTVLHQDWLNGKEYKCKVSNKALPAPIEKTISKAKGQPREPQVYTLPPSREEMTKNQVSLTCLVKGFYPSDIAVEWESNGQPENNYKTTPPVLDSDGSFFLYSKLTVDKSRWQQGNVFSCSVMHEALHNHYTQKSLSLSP
light: DIVMTQSPATLSLSPGERATLSCTSSQSVYHANWLSWFQQKPGQPPKLLIYWASTLAYGVPSRFSGSGSGTDFTLTISSLQPEDAATYYCAGGYGGGRYAFGQGTKVEIKRTVAAPSVFIFPPSDEQLKSGTASVVCLLNNFYPREAKVQWKVDNALQSGNSQESVTEQDSKDSTYSLSSTLTLSKADYEKHKVYACEVTHQGLSSPVTKSFNRGEC
notes: Substitution introduced into M103205H795-SG1; EU numbering
For B2, the figures for the “KD fold (SG1 = 1)” value in assay [1], in [2] and in assay [3] were 0.9 fold, 1.1 fold and 0.9 fold, respectively. Moreover, the Kd (usually a measure of binding affinity in units of concentration) in assay [4] turned out to be 3.5 µM; in [5], 16 µM; in assay [6], 5.1 µM.

B3: M103205H795-MY453/M103202L889-SK1 (antibody, human IgG1, kappa)
heavy: QVTLKESGPVLVKPTETLTLTCTVSGIDLSHDDISWVRQAPGKGLEWVGIISYAGSTYYASWAKGRLTISKDTSKNQVVLTMTNMDPVDTATYYCARGVPAYSHGGDLWGQGTLVTVSSASTKGPSVFPLAPSSKSTSGGTAALGCLVKDYFPEPVTVSWNSGALTSGVHTFPAVLQSSGLYSLSSVVTVPSSSLGTQTYICNVNHKPSNTKVDKKVEPKSCDKTHTCPPCPARELLTGPSVFLFPPKPKDTLMISRTPEVTCVVVDVSDEDPEVKFNWYVDGVEVHNAKTKPREEQYNSTYRVVSVLTVLHQDWLNGKEYKCKVSNKALPKPIEKTISKAKGQPREPQVYTLPPSREEMTKNQVSLTCLVKGFYPSDIAVEWESNGQPENNYKTTPPVLDSDGSFFLYSKLTVDKSRWQQGNVFSCSVMHEALHNHYTQKSLSLSP
light: B2 light
notes: Substitutions in EU numbering on SG1
Take B3: the Kd was 6.2 µM in [7], 0.016 µM in assay [8] and 1.4 µM in [9].

B4: M103205H795-MY261/M103202L889-SK1 (antibody, human IgG1, kappa, name in EU numbering)
heavy: B3 heavy with R234P, T238H
light: B2 light
notes: Asn at EU 236 of MY201 replaced with His
Take B4: the results for the Kd in assay [10], in assay [11] and in [12] were 55 µM, 2.4 µM and 0.053 µM, respectively.

B5: M103205H795-MY016/M103202L889-SK1 (antibody, human IgG1, kappa, name in EU numbering)
heavy: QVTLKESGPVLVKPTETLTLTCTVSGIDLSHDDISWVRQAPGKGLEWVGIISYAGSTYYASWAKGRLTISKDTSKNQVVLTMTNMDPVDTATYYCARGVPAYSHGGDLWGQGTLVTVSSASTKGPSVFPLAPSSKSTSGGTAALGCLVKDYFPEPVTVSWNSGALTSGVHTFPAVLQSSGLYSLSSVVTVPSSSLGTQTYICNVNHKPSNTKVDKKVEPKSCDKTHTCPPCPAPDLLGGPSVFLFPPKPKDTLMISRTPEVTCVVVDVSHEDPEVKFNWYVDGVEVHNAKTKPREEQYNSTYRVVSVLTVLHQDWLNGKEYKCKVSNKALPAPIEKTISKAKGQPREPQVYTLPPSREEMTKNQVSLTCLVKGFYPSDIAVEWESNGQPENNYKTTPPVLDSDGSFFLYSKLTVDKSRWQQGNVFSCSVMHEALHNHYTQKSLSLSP
light: B2 light
notes: Substitution introduced into M103205H795-SG1
For the molecule B5, the “KD fold (SG1 = 1)” value in assay [13] turned out to be 2.19 fold.

B6: M103205H795-MY037/M103202L889-SK1 (antibody, human IgG1, kappa, name in EU numbering)
heavy: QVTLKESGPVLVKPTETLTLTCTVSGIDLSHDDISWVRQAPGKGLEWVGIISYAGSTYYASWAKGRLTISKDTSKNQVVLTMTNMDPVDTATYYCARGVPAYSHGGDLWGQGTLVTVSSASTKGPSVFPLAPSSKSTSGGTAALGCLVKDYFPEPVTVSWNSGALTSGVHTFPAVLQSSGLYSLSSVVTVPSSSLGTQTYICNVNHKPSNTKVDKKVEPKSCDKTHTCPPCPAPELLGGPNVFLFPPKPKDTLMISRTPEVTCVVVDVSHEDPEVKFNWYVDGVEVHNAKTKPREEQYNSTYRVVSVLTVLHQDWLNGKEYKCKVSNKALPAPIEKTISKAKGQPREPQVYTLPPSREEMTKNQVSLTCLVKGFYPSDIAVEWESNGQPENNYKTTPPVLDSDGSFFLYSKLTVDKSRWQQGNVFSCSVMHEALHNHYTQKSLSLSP
light: B2 light
notes: as for B2
For B6, the “KD fold (SG1 = 1)” value in assay [2] is 1.6 fold; in [13] it was 2.19 fold.

B7: MST1572 (antibody, human IgG1, kappa, V domains shown)
VH: QSVEESGGRLVTPGTPLTLTCTVSGFSLSSYAMSWVRQAPGKGLEWIGIIYGVGSTYYASWAKGRFTISKTSTTVDLKIASPTTEDTATYFCARDDYGWGYTNLWGPGTLVTVSS
VL: QVLTQTPSSVSAAVGGTVTINCQSSQSVYNNNYLAWFQQKPGQPPKLLIYDASKLASGVPSRFKGSGSGTQFTLTISGVQCDDAATYYCQGSYYSSGWYRAFGGGTKVEIKR
notes: as for B1
As for B7, the binding result with Human latent myostatin is reported as “binds”.
